Patent US20240101688A1 (MYTHIC THERAPEUTICS, published 2024)

Tests used:
[1] = target: T1, MET Proto-Oncogene, Receptor Tyrosine Kinase (MET), on cells (human, UniProt P08581 25-1390); assay: affinity on HUVEC against affinity on Detroit-562, flow cytometry, pH 7.4
T1 construct: also called cMET; c-Met
Experimental: (§1) Measurement of the affinity of pH-engineered antibodies specific for MET was performed by FACS analysis on cell lines with ranges of cMET expression; Detroit-562 cells (ATCC; CCL-138), NCI-H1975 (ATCC CRL-5908) and HUVEC (C2519A, Lonza). Cell lines selected for this study were obtained from commercial sources and cultured using manufacturer recommended conditions. All cell lines were cultured upon receipt, expanded and cryopreserved at a similar passage number for use in the affinity experiments. Briefly, 1.0×10\hat{ }5 cells that express MET are plated per well in a 96-well plate in 100 μL media. The cells are washed two times with 200 μL of FACS buffer (1×PBS containing 3% Fetal Bovine Serum) at pH 7.4. The purified protein samples are diluted into FACS buffer at pH 7.4, for a titration from 100 nM to 1 pM, and added to the cells and allowed to bind for 2 hours on ice. After incubation with the primary antibodies, cells are washed twice as before, and then 100 μl of secondary goat anti-Human AF488 (IgG Cross-Adsorbed polyclonal secondary antibody), diluted 1:200, is added in FACS buffer pH 7.4, and incubated for 1 hour on ice. The plates are washed twice Binding is read on a flow cytometer (Accuri C6, BD Biosciences). Binding is observed as a shift in the FL1 signal (as a mean fluorescence intensity) versus secondary alone.

[2] = target: T1, MET Proto-Oncogene, Receptor Tyrosine …; assay: flow cytometry titration on HUVEC cells (8k/cell), pH 7.4; printed as Affinity at pH 7.4; HUVEC cells (8k/cell), pH 7.4
Experimental: as §1

[3] = target: T1, MET Proto-Oncogene, Receptor Tyrosine …; assay: flow cytometry titration on Detroit-562 cells (125K/cell), pH 7.4; printed as Affinity at pH 7.4
Experimental: as §1

[4] = target: T2, MET (cMET, Sino Biological Cat. No. 10692-H08H) (UniProt P08581 25-932); assay: BLI: antibody captured on anti-human Fc biosensor, MET in solution; three runs: pH 7.4 throughout, pH 6.4 throughout, association at pH 7.4 then release at lower pH (key on the sheet: pH 5.4; legend paragraph 84: pH 6.4); association 0-120 s
T2 construct: Soluble analyte of the BLI assays
T2 sequence (P08581 25-932 limits assumed): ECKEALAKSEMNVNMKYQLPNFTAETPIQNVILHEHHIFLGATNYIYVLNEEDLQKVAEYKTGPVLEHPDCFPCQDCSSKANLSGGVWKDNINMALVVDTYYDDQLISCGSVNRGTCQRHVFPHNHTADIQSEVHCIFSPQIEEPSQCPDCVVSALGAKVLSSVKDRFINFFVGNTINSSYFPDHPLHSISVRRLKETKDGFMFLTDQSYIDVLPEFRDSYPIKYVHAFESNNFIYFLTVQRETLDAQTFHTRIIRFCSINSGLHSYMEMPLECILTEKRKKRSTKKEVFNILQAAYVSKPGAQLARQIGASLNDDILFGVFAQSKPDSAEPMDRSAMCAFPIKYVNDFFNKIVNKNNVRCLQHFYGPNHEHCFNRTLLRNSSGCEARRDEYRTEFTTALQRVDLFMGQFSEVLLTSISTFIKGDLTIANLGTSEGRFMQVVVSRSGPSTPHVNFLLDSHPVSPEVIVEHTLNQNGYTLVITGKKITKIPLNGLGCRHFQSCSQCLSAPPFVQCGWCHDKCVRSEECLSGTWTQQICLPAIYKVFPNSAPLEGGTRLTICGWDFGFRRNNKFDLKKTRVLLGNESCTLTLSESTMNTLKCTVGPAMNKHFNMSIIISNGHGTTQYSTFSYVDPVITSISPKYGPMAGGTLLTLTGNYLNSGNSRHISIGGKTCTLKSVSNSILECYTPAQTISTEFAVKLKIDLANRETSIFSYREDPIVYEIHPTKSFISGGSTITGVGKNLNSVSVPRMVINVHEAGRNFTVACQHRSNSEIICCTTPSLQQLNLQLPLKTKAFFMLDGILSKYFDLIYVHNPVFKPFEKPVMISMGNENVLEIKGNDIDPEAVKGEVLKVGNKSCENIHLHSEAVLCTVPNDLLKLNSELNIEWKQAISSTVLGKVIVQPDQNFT

T1 sequence (P08581 25-1390): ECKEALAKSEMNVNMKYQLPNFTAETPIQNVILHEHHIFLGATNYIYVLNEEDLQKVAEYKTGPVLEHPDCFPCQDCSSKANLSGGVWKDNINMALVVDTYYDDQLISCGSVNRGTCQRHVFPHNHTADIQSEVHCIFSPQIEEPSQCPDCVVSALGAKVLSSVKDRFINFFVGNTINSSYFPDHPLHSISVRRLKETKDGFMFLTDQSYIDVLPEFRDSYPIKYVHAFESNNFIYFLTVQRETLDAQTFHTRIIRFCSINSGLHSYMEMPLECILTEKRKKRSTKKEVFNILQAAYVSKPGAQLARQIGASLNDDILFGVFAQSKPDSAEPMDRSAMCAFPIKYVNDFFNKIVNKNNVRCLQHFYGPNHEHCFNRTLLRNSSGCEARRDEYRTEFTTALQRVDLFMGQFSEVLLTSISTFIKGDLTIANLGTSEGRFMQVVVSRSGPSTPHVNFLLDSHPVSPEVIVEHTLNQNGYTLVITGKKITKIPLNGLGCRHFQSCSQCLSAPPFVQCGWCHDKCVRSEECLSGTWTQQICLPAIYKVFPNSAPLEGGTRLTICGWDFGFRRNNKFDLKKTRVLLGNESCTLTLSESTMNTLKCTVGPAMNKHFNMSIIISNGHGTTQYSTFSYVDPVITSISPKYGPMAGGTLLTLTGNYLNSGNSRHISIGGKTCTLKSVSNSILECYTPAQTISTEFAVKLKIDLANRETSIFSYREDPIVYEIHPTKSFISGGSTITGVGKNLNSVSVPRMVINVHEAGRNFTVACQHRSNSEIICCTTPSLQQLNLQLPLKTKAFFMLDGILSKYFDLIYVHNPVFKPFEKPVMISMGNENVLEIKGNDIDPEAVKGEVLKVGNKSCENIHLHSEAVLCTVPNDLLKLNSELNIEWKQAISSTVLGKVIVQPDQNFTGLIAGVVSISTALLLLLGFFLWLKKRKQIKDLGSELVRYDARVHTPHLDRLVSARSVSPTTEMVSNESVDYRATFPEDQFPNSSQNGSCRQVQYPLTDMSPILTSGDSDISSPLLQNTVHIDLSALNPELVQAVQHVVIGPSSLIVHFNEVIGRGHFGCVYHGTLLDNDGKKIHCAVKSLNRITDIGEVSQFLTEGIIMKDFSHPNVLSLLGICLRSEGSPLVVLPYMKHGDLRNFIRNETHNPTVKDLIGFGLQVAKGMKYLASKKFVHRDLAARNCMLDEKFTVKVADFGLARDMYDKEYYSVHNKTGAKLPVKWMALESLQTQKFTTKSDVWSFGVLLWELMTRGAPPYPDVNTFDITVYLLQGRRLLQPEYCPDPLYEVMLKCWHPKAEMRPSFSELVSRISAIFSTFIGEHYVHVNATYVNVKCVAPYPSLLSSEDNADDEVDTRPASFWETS

Fold Avidity [1] [fold] | Kd [2] [nM] | Kd [3] [nM] | binding result [4] | Binder
> 220 | > 200 | 0.903 | – | MYT4325 (antibody, V domains shown, P3D12 variant) VH: QVQLVQSGAEVKKPGASVKVSCKASGYTFTSYWMHWVKQAPGQGLDWIGYIKPSTDNTHYNQKFKDKATLTADKSTSTAYMELSSLRSEDTAVYYCARSYGHYPLMHYWGQGTTVTVSS VL: QIVLTQSPAILSLSPGERATLSCSASSSVTSNYLYWYQQKPGSSPKLLIYSTSNLASGVPARFSGSGSGTSYTLTISSLEAEDAASYFCHQWSSYPPTFGSGTKLEIKR
– | – | – | binds | MYT4940 (antibody, V domains shown, Telisotuzumab variant) VH: QVQLVQSGAEVKKPGASVKVSCKASGYIFTAYTMHWVRQAPGQGLEWMGWIKPNNGLANYAQKFQGRVTMTRDTSISTAYMELSRLRSDDTAVYYCARHEITTEFDHWGQGTLVTVSS VL: DIVMTQSPDSLAVSLGERATINCKSSESVDSYANSHLHWYQQKPGQPPKLLIYRASTRESGVPDRFSGSGSGTDFTLTISSLQAEDVAVYYCQQSKEDPLTFGGGTKVEIKR
